According to patent US20070036793A1, “Methods for use of an lkb1/strad7mo25 complex” (priority 2003, published 2007):

T1: GST-STRADα lacking the last 3 amino acids (Trp-Glu-Phe) (human, UniProt Q7RTN6 1-428)
T1 construct: not shown: glutathione S-transferase (GST) tag, N-terminal, pEBG-2T vector
T1 sequence: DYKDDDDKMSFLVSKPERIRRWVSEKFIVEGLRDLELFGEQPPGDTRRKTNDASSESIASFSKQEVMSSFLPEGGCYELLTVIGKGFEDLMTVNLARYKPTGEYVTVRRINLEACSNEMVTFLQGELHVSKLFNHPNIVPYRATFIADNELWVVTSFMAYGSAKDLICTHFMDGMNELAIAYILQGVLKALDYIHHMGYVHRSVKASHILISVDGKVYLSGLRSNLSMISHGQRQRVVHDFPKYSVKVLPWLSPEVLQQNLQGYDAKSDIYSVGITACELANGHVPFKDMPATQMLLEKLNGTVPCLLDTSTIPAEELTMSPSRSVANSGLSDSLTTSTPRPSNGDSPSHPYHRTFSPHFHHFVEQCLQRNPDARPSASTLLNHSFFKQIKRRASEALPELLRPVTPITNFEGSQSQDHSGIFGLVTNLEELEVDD

T2: Flag-tagged STRADα (human, UniProt Q7RTN6 1-431, limits assumed)
T2 construct: pCMV5 vector; also called Flag-STRADα; FLAG-STRADα
T2 sequence: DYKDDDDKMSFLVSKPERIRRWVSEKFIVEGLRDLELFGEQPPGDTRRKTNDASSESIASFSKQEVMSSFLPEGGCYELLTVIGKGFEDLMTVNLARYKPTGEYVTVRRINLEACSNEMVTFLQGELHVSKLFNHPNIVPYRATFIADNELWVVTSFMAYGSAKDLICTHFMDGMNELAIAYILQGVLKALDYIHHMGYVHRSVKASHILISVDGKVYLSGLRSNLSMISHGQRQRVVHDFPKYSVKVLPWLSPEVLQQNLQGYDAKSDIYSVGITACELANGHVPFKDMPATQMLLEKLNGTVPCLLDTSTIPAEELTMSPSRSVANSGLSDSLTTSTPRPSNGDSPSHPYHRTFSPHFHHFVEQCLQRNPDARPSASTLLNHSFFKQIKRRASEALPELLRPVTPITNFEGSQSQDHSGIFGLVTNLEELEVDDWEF

T3: Flag-tagged STRADβ (human, UniProt Q9C0K7 1-418)
T3 construct: pCMV5 vector; also called Flag-STRADβ; FLAG-STRADβ
T3 sequence: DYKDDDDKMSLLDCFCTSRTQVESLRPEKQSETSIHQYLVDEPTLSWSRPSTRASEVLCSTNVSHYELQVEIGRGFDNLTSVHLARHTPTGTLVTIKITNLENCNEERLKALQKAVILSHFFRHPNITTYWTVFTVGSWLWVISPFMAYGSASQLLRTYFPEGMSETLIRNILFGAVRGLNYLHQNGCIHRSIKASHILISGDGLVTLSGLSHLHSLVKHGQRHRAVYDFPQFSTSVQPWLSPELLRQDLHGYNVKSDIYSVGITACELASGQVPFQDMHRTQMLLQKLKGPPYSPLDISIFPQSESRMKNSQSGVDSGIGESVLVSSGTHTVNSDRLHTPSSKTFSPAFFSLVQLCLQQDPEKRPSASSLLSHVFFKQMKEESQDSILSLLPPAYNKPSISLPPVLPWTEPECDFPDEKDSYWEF

T4: N-terminal Flag epitope tagged wild type LKB1 (mouse, UniProt Q9WTK7 1-436)
T4 construct: not restated for the HeLa lines; also called Flag-LKB1; WT LKB1
T4 sequence: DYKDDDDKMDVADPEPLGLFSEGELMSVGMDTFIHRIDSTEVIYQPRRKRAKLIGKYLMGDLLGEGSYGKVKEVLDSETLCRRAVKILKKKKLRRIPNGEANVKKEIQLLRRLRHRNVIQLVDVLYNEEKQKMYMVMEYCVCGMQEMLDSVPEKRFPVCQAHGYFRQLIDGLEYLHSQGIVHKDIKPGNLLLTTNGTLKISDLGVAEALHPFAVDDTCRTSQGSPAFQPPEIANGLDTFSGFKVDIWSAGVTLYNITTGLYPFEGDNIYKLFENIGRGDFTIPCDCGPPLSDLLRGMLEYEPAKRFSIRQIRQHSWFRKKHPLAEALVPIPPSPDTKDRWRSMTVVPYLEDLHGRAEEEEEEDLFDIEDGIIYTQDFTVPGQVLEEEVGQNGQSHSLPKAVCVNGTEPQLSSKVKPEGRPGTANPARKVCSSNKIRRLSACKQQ

B1: N-terminal Myc-tagged MO25α (other, human, UniProt Q9Y376 1-341, looked up)
chain: MPFPFGKSHKSPADIVKNLKESMAVLEKQDISDKKAEKATEEVSKNLVAMKEILYGTNEKEPQTEAVAQLAQELYNSGLLSTLVADLQLIDFEGKKDVAQIFNNILRRQIGTRTPTVEYICTQQNILFMLLKGYESPEIALNCGIMLRECIRHEPLAKIILWSEQFYDFFRYVEMSTFDIASDAFATFKDLLTRHKLLSAEFLEQHYDRFFSEYEKLLHSENYVTKRQSLKLLGELLLDRHNFTIMTKYISKPENLKLMMNLLRDKSRNIQFEAFHVFKVFVANPNKTQPILDILLKNQAKLIEFLSKFQNDRTEDEQFNDEKTYLVKQIRDLKRPAQQEA
notes: also called Myc-MO25α; myc-MO25α; not shown: only the DNA primer is printed
B2: GST-STRADα lacking the C-terminal 88 residues (other, human)
chain: DYKDDDDKMSFLVSKPERIRRWVSEKFIVEGLRDLELFGEQPPGDTRRKTNDASSESIASFSKQEVMSSFLPEGGCYELLTVIGKGFEDLMTVNLARYKPTGEYVTVRRINLEACSNEMVTFLQGELHVSKLFNHPNIVPYRATFIADNELWVVTSFMAYGSAKDLICTHFMDGMNELAIAYILQGVLKALDYIHHMGYVHRSVKASHILISVDGKVYLSGLRSNLSMISHGQRQRVVHDFPKYSVKVLPWLSPEVLQQNLQGYDAKSDIYSVGITACELANGHVPFKDMPATQMLLEKLNGTVPCLLDTSTIPAEELTMSPSRSVANSGLSDSLTTSTPRPSNGDSPSHP
notes: not shown: glutathione S-transferase (GST) tag, N-terminal, pEBG-2T vector

Tests used:
[1] = molecular target: B2; experiment: GST pull-down from co-transfected 293 cells
Protocol: (§1) FIG. 7. Binding of LKB1 to STRADα creates novel binding site(s) for MO25α. […] Similar results were obtained in 3 separate experiments.
(§2) Expression of GST-fusion proteins in 293 cells and affinity purification. 10-cm diameter dishes of 293 cells were transiently transfected with 3 to 10 μg of the pEBG-2T constructs using a modified calcium phosphate method (Alessi et al., 1996). 36 h post-transfection, the cells were lysed and the clarified lysates were incubated for 1 h on a rotating platform with glutathione-Sepharose (25 μl/dish of lysate) previously equilibrated in lysis Buffer. The beads were washed 4 times with lysis Buffer containing 150 mM NaCl and twice with Buffer A. For immunoblotting analysis, the beads were then resuspended in SDS sample Buffer after this step to give a final volume of slurry of 75 μl, and the samples immunoblotted as described above. For protein kinase assays and gel electrophoresis, the beads were washed a further twice with Buffer A containing 0.27 M sucrose and the proteins were eluted from the resin by incubation with the same buffer containing 20 mM of glutathione. The beads were then removed by filtration through a 0.44-μm filter and the eluate divided into aliquots and stored at −80° C.

[2] = molecular target: T1, GST-STRADα lacking the last 3 amino …; experiment: GST pull-down from co-transfected 293 cells, anti-Myc blot
Protocol: 5 μg of the total cell lysates prior to affinity purification were also subjected to immunoblotting with anti-Myc antibody to ensure that Myc-MO25α was expressed at similar levels in each condition (lower panel). (B) 0.5 mg of the indicated cell lysates was incubated with 5 μg of an N-terminal biotinylated peptide encompassing either the C-terminal 12 residues STRADα conjugated to streptavidin-Sepharose ([…], termed STRADα-C12) or mutants of this peptide in which the indicated residues were individually mutated to Ala. Following isolation and washing of the beads, the samples were subjected to SDS-polyacrylamide gel electrophoresis and immunoblotted with an anti-MO25α antibody. (C) Binding of bacterially expressed MO25α to the indicated peptides was analysed by surface plasmon resonance BiaCore analysis as described in Materials and Methods. […] WEF-C12 corresponds to […], WEA-C12 corresponds to […], AEF-C12 corresponds to […], WAF-C12 corresponds to […], WEF-C6 corresponds to VDDWEF.
Expression of GST-fusion proteins in 293 cells and affinity purification. 10-cm diameter dishes of 293 cells were transiently transfected with 3 to 10 μg of the pEBG-2T constructs using a modified calcium phosphate method (Alessi et al., 1996). […]

Flag-tagged STRADα = molecular target: T2, Flag-tagged STRADα; experiment: heterotrimeric complex purified through GST-LKB1 from co-transfected 293 cells, colloidal blue gel and blots
Protocol: (§3) FIG. 4. MO25α is associated with LKB1 through STRAD (A) 293 cells were transfected with plasmids encoding for the expression of the indicated GST fusion proteins together with Myc-MO25α. 36 h post transfection, the GST tagged proteins were affinity purified from the cell lysates using glutathione-Sepharose as described in Materials and Methods. […] 5 μg of total cell lysates prior to affinity purification were also subjected to immunoblotting with anti-Myc antibody to ensure that Myc-MO25α was expressed at similar levels in each co-transfection (lower panel). (B) N-terminal GST tagged LKB1 was expressed in 293 cells in the presence or absence of Flag-STRADα and purified as above. The purified proteins were subjected to SDS-polyacrylamide gel electrophoresis and visualised by Colloidal blue staining (upper panel). The faint protein band indicated, corresponding to an endogenous protein of 40-kDa (marked *), was identified by tryptic peptide mass-spectral fingerprint as endogenously expressed MO25α (with 38% sequence coverage). The purified proteins were also immunoblotted with the indicated antibodies (lower panels). (C) As above except that GST-LKB1 was expressed in 293 cells together with the indicated isoforms of Flag-STRAD and Myc-MO25 and the proteins visualised by colloidal blue staining were also immunoblotted with the indicated antibodies. For all panels, similar results were obtained in at least 3 separate experiments.
(§4) Expression of GST-fusion proteins in 293 cells and affinity purification. 10-cm diameter dishes of 293 cells were transiently transfected with 3 to 10 μg of the pEBG-2T constructs using a modified calcium phosphate method (Alessi et al., 1996). 36 h post-transfection, the cells were lysed and the clarified lysates were incubated for 1 h on a rotating platform with glutathione-Sepharose (25 μl/dish of lysate) previously equilibrated in lysis Buffer.

Flag-tagged STRADβ = molecular target: T3, Flag-tagged STRADβ; experiment: as above
Protocol: as §3, §4

[3] = molecular target: T4, N-terminal Flag epitope tagged wild …; experiment: GST pull-down from co-transfected 293 cells
Protocol: as §1, §2

| binding result [1] | binding result [2] | binding result (Flag-tagged STRADα) | binding result (Flag-tagged STRADβ) | binding result [3] | Binder |
| --- | --- | --- | --- | --- | --- |
| no binding | no binding | binds | binds |  | B1 |
|  |  |  |  | no binding | B2 |
